Assay [1] deals with PhtD, WU2 (3) (Streptococcus pneumoniae). Put plainly: flow cytometry on whole bacteria, 3 (WU2), mAb 10 µg/ml, APC anti-human IgG Fc; no mAb 1.3. For orientation: In flow cytometry, cells or beads pass a laser one at a time.
Assay [2] has as its target PhtD protein of pneumococcal strain TIGR4 (serotype 4), native, in bacterial lysates (Streptococcus pneumoniae strain TIGR4 (serotype 4)). Put plainly: flow cytometry on whole bacteria, 4 (TIGR4), mAb 10 µg/ml, APC anti-human IgG Fc; no mAb 0.1.
Assay [3] concerns the target PhtD, serotype 2 (Streptococcus pneumoniae). Put plainly: flow cytometry on whole bacteria, serotype 2, mAb 10 µg/ml, APC anti-human IgG Fc; no mAb 0.6.
Assay [4] deals with PhtD, serotype 6D (Streptococcus pneumoniae). Put plainly: flow cytometry on whole bacteria, serotype 6d, mAb 10 µg/ml, APC anti-human IgG Fc; no mAb 0.4.
Assay [5] addresses recombinant His-tagged full-length pneumococcal histidine triad protein D (PhtD) from strain TCH8431 (serotype 19A) (Streptococcus pneumoniae strain TCH8431 (serotype 19A)). The experiment in a line: competitive BLI, His-tagged PhtD on anti-penta-HIS tips; first mAb PhtD6, then second mAb, each 100 µg/mL; grey cell.
Assay [6] addresses PhtD, serotype 6C (Streptococcus pneumoniae). The experiment in a line: flow cytometry on whole bacteria, serotype 6c, mAb 10 µg/ml, APC anti-human IgG Fc; no mAb 1.3.
In assay [7] the target is PhtD, serotype 12F (Streptococcus pneumoniae). The experiment in a line: flow cytometry on whole bacteria, serotype 12F, mAb 10 µg/ml, APC anti-human IgG Fc; no mAb 0.3.
In assay [8] the target is PhtD protein of pneumococcal strain TCH8431 (serotype 19A), native, in bacterial lysates (Streptococcus pneumoniae strain TCH8431 (serotype 19A)). Put plainly: flow cytometry on whole bacteria, 19A (TCH8431), mAb 10 µg/ml, APC anti-human IgG Fc; no mAb 0.4.
Assay [9] has as its target recombinant His-tagged full-length pneumococcal histidine triad protein D (PhtD) from strain TCH8431 (serotype 19A) (Streptococcus pneumoniae strain TCH8431 (serotype 19A)). The experiment in a line: ELISA on coated recombinant PhtD, non-linear regression fit.
In assay [10] the target is PhtD 168-343 (Streptococcus pneumoniae). Put plainly: ELISA on coated MBP-PhtD fragment, OD405. For orientation: ELISA stands for enzyme-linked immunosorbent assay.
For assay [11], the target named is PhtD 1-170 (Streptococcus pneumoniae). Put plainly: ELISA on coated MBP-PhtD fragment, OD405.
The target in assay [12] is PhtD 1-343 (Streptococcus pneumoniae). Put plainly: ELISA on coated MBP-PhtD fragment, OD405.
For assay [13], the target named is PhtD, serotype 11A (Streptococcus pneumoniae). The experiment in a line: flow cytometry on whole bacteria, serotype 11A, mAb 10 µg/ml, APC anti-human IgG Fc; no mAb 0.6.
Assay [14] deals with recombinant His-tagged full-length pneumococcal histidine triad protein D (PhtD) from strain TCH8431 (serotype 19A) (Streptococcus pneumoniae strain TCH8431 (serotype 19A)). The experiment in a line: competitive BLI, His-tagged PhtD on anti-penta-HIS tips; first mAb PhtD7, then second mAb, each 100 µg/mL; white cell.
Assay [15] has the same target. Put plainly: ELISA on coated recombinant PhtD, OD405.
The target is the same in assay [16]. Put plainly: competitive BLI, His-tagged PhtD on anti-penta-HIS tips; first mAb PhtD8, then second mAb, each 100 µg/mL; white cell.
For assay [17], the target named is PhtD, serotype 9N (Streptococcus pneumoniae). Put plainly: flow cytometry on whole bacteria, serotype 9N, mAb 10 µg/ml, APC anti-human IgG Fc; no mAb 1.5.
Assay [18] has as its target recombinant His-tagged full-length pneumococcal histidine triad protein D (PhtD) from strain TCH8431 (serotype 19A) (Streptococcus pneumoniae strain TCH8431 (serotype 19A)). The experiment in a line: competitive BLI, His-tagged PhtD on anti-penta-HIS tips; first mAb PhtD3, then second mAb, each 100 µg/mL; black cell.

The text below walks through data of US20240117019A1.

B1: human monoclonal antibody PhtD3 (antibody, V domains shown)
VH: QVQLVQSGPDVKKPGSSVKVSCKASGAAFESFAFAWVRQAPGQGFEWMGRIIPILETRDYAEKFQGRMTMTTDESTATAYMELNSLRFEDTAVYFCARDGHIMRTTLSDAALDVWGQGTTVIVSS
VL: DIVMTQSPVTLSLSPGERATLSCRASQSLTDNYLAWYQQKPGQAPRLLIYAASTRATGIPDRISGSGSGTDFTLTISRVEPEDFAMFYCQQYQNSPFTFGGGTTVEIK
For the molecule B1, the % APC+ in [1] was 16%; in [2] it was 7.2%; in assay [3] it was 3.2%; in [4], 2.4%; in assay [6], 4.2%; in [7] it was 45.8%. Besides, the % APC+ turned out to be 18.3% in assay [8], 19.6% in [13] and 28.1% in assay [17]. Moreover, the percent binding of the second mAb in the presence of the first mAb in [5] came to 47%; in assay [14], 81%; in [16], 77%; in [18], 9%. Besides, the 50% effective concentration (EC50) (commonly the midpoint of the concentration-response curve) in assay [9] worked out at 0.045 µg/mL. Also, the EC50 (read off the curve) in [10], in assay [11], in assay [12] and in [15] was 0.1 µg/mL in each case.

B2: PhtD3-IgG2a (recombinant chimera of mAb PhtD3 with a mouse IgG2a Fc region) (antibody, V domains shown)
VH: QVQLVQSGPDVKKPGSSVKVSCKASGAAFESFAFAWVRQAPGQGFEWMGRIIPILETRDYAEKFQGRMTMTTDESTATAYMELNSLRFEDTAVYFCARDGHIMRTTLSDAALDVWGQGTTVIVSS
VL: DIVMTQSPVTLSLSPGERATLSCRASQSLTDNYLAWYQQKPGQAPRLLIYAASTRATGIPDRISGSGSGTDFTLTISRVEPEDFAMFYCQQYQNSPFTFGGGTTVEIK
For the molecule B2, in assay [15], the EC50 (read off the curve) (in general, the concentration that produces a half-maximal response) was determined as 0.05 µg/mL.
